In patent US5310882A, “Somatotropins with alterations in the α-helix 3 region” (priority 1990, dated 1994):
Changes are numbered by the printed parent chain. In names and notes the source's numbering stands.

B1: L115A + A34: rpST with leucine 115 changed to alanine, A34 background (protein, UniProt P01248 27-216, looked up, variant L115A)
Somatotropin: FPAMPLSSLFANAVLRAQHLHQLAADTYKEFERAYIPEGQRYSIQNAQAAFCFSETIPAPTGKDEAQQRSDVELLRFSLLLIQSWLGPVQFLSRVFTNSLVFGTSDRVYEKLKDAEEGIQALMRELEDGSPRAGQILKQTYDKFDTNLRSDDALLKNYGLLSCFKKDLHKAETYLRVMKCRRFVESSCAF
modifications: A34 background
notes: rpST with leucine 115 changed to alanine, A34 background
B2: L118A + A34: rpST with leucine 118 changed to alanine, A34 background (protein, UniProt P01248 27-216, looked up, variant L118A)
Somatotropin: B1 Somatotropin with L92A, A115L
modifications: A34 background
notes: rpST with leucine 118 changed to alanine, A34 background

Tests used:
[1] = Solution stability profile of rpST mutant proteins (solubility in vitro at 43° C.); assay type: physicochemical; settings: pH 7.4
Procedure: The procedure described to determine stability profiles is as follows. […] This is filtered through a millipore sterile Millex-0.22 μm filter unit and 0.1 ml aliquots placed into tubes. These are placed in a 43° C. oven and removed at the required intervals. The contents are then diluted with phosphate buffered saline. The supernatant is assayed for monomer and dimer content by HPLC. A mass balance is done. Any precipitated material is recorded. Results are compared with the initial concentrations and a stability profile documented.

[2] = test system: hypophysectomized (hypox) rat; assay: Hypox rat test for growth enhancement; assay type: in vivo; settings: growth over a period such as 10 days; relative to rpST positive control
Procedure: The efficacy of the recombinant animal somatotropin derivatives of the present invention for altering the growth rate of animals is determined utilizing the hypophysectomized (hypox) rat assay. […] The response measured is growth over a period of time such as 10 days and is presented in Table IV as percent of the biological activity of the rpST positive control, which is included in every trial.

[3] = test system: somatotropin receptor from purified liver membranes; assay: Liver radio-receptor assay (RRA), competition with 125I-rpST; settings: competition with 125I-rpST for binding; percent rpST binding

| Molecule | % Soluble [1] | Hypox rat [2] | RRA [3] |
| --- | --- | --- | --- |
| B1 | 0% | 88.6% of the activity of the | 163% of the activity observ |
| B2 | 10% | 64% of the activity of the | 49.5% of the activity observ |
